Experimental data reported in the RNAGym collection of RNA variant scans (doi:10.7554/elife.80360).

B1: CPEB3 Ribozyme (parent)
chain: GGGGGCCACAGCAGAAGCGUUCACGUCGCGGCCCCUGUCAGAUUCUGGUGAAUCUGCGAAUUCUGCUGU

Variants of: B1
Assay: self-cleavage, relative activity (ratio to wild type); higher = more cleavage; co-transcriptional

In order of rising self-cleavage:
1. C22G C24G  0.0697
2. C22A C54A  0.0889
3. C22A C24A  0.0966
4. C22U G28C  0.126
5. C22U C32G  0.133
6. C22G U26A  0.144
7. C22A C27U  0.144
8. C22U C57G  0.144
9. C22A G65C  0.147
10. C22A U38C  0.151
11. C22A G56U  0.151
12. C22A G47C  0.157
13. C22G C45U  0.158
14. U21G C63G  0.158
15. C22A C27A  0.158
16. C22G G56C  0.158
17. C24A G30C  0.159
18. C22A C39A  0.161
19. C22U C35G  0.165
20. C22U A40C  0.165
21. C22A C27G  0.168
22. C24A C27U  0.168
23. C22U C29A  0.172
24. C22G U49A  0.172
25. C22A A52C  0.173
26. C22G G37A  0.174
27. C22G U46G  0.178
28. C22U C24A  0.179
29. C22U U61A  0.18
30. C22A A42U  0.181
31. C22U G37U  0.181
32. C22G U61A  0.181
33. C22G C24U  0.182
34. C22A U44A  0.184
35. C22U A40U  0.184
36. C22A G58C  0.184
37. C24A C35A  0.185
38. C24A C57A  0.188
39. C22A A59C  0.192
40. C22U C57U  0.192
41. C22A C63U  0.194
42. C22A A59U  0.198
43. A23C G28U  0.2
44. C22G C34U  0.203
45. C22U A42G  0.204
46. C22U U26G  0.207
47. C22G U26C  0.209
48. C22G G48C  0.212
49. C22A G37A  0.212
50. U21G G30U  0.214
51. C22A U44C  0.217
52. A23G C29U  0.217
53. U21G G30A  0.221
54. C22A C39G  0.223
55. U21G G30C  0.232
56. C22A A59G  0.232
57. C22A C66A  0.232
58. C22A G50A  0.24
59. C22G G56A  0.241
60. C22G U69A  0.242
61. C24A G65C  0.245
62. U21G U64C  0.254
63. U21G G65A  0.255
64. C22G C29A  0.258
65. C22G A60G  0.265
66. C22U A40G  0.266
67. C22U U46G  0.274
68. C22U A23C  0.276
69. C22U U26C  0.279
70. U21G G58A  0.281
71. U21G G25A  0.284
72. U21G U64G  0.295
73. C22U U43C  0.295
74. C24A G65U  0.303
75. U21G U64A  0.304
76. U21G U26C  0.308
77. A23C G30U  0.317
78. U21G U61A  0.319
79. A23C U36G  0.326
80. C22U C66U  0.33
81. C22U U67G  0.332
82. A23C U36A  0.335
83. A23G C32G  0.337
84. U21G C54A  0.341
85. C22G U69G  0.349
86. C22U U67C  0.365
87. C22U U46C  0.369
88. C24A A40U  0.383
89. U21G C39A  0.396
90. C24A U62G  0.425
91. U21G C63U  0.434
92. C24A G65A  0.441
93. U21G U53A  0.473
94. C24A C35U  0.476
95. U21G G50A  0.488
96. C24A U26C  0.507
97. C22U G68U  0.51
98. A23C A60U  0.516
99. C24A C54A  0.516
100. A23C A40C  0.544
101. C24A C54G  0.549
102. U21G C45G  0.567
103. A23G G31U  0.583
104. U21G C45U  0.593
105. U21G C39U  0.61
106. U21G G50C  0.616
107. C24A U43C  0.631
108. U21G U46C  0.635
109. U21G C45A  0.643
110. A23C A59U  0.67
111. A23C U61C  0.689
112. U21G G68U  0.701
113. A23C U55G  0.708
114. C24A U67C  0.713
115. C24A G50U  0.722
116. A23C G41C  0.725
117. A23G U64G  0.738
118. A23C C33A  0.746
119. C24A G47U  0.754
120. A23C U62A  0.755
121. C24A G47C  0.765
122. A23G U64C  0.777
123. A23G G31A  0.781
124. C24A A51U  0.782
125. U21G G68C  0.783
126. A23G U26G  0.788
127. A23C A40U  0.79
128. A23C C39U  0.796
129. C24A C34U  0.803
130. A23C G41A  0.809
131. A23C C66G  0.81
132. A23U G65U  0.811
133. C24A G68C  0.825
134. A23C C54A  0.849
135. A23G U53G  0.85
136. A23C U55A  0.866
137. A23C A42U  0.869
138. A23U U43G  0.884
139. A23U C66A  0.886
140. A23U A59C  0.888
141. A23C U53A  0.89
142. A23C G58A  0.89
143. A23U C32A  0.893
144. A23U U55G  0.908
145. A23C A42C  0.92
146. A23C G47A  0.924
147. A23C G58U  0.929
148. U21G U38C  0.932
149. A23G C35U  0.935
150. A23C U44A  0.936
151. A23C G48U  0.942
152. A23C U44G  0.946
153. A23U A51G  0.954
154. C22G G37C  0.956
155. A23C U46C  0.959
156. A23C G47C  0.961
157. A23C U46G  0.962
158. A23U A59U  0.969
159. A23C C63U  0.969
160. A23C G68A  0.969
161. A23U G31A  0.977
162. A23C G48A  0.978
163. A23C G47U  0.993
164. A23G G48A  1
165. A23G U26C  1.03
166. A23U U69G  1.04
167. A23U G48C  1.06
